Laboratory results as given in US6673902B2, “Cyclin D binding factor, and uses thereof” (St. Jude Children's Research Hospital, priority 1996, dated 2004).
Blank lines part the entries; values can stand above or below the molecule they belong to.

How the values were obtained:
[1] = tested on: 281 bp ARF promoter fragment; test: Transactivation of ARF promoter-luciferase reporter in NIH-3T3 cells; format: cell-based, mouse; details: NIH-3T3, 281 bp ARF promoter fragment-luciferase
Procedure: Transactivation assays. NIH-3T3 cells were transfected with 4 μg of pGL2-ARFpro BamHI or its DMP1 binding site mutant, with or without increasing amount of pFLEX-DMP1, pEVRFO-Ets1, pCMV-Ets2, pRcRSV-Elfl, pdEB-Fli1, p(IEB-EWS-Fli1 or pCMV-E2F-1 (89-437), and 4 μg β-actin SEAP control vectors [Inoue and Sherr, Mol. Cell. Biol. 18: 1590-1600 (1998); Inoue et al., J. Biol. Chem. 273:29188-29194 (1998); Davis and Roussel, Gene 171:265-269 (1996); Baily et al., Mol. Cell. Biol. 14:3230-3241 (1994)]. Transfections and normalization of luciferase levels with internal control SEAP levels were performed as described [Inoue and Sherr, Mol. Cell. Biol. 18:1590-1600 (1998)].
Similarly, DMP1 deletion mutants defective in transactivation [Inoue and Sherr, Mol. Cell. […] Mutation of the DMP1 binding site within the ARF promoter [changing CCCGGATGC, (SEQ ID NO:33) to CCCGTCGAC, (SEQ ID NO:42)] also completely abolished transactivation by wild-type DMP1 (FIG. 14C, mutant reporter). Therefore, sequences within the −189 to −181 ARF promoter segment were the only ones responsible for DMP1-mediated transactivation. Although Ets1 could bind to a 23 base pair oligonucleotide containing the DMP1 consensus site (FIG. 14B), several Ets proteins were unable to induce significant reporter gene expression from the more complex 281 base pair ARF promoter (FIG. 14C). […]

D-type cyclins = biological target: T1, D-type cyclins (Mus musculus, UniProt P25322); test: In vitro binding of [35S]methionine-labeled D-type cyclins to GST fusion proteins; details: cyclin D1
T1 construct: made in house; host or cells: in vitro transcription (Stratagene) and translation (rabbit reticulocyte system, Promega)
T1 sequence (P25322 whole entry, the tested form may be a part): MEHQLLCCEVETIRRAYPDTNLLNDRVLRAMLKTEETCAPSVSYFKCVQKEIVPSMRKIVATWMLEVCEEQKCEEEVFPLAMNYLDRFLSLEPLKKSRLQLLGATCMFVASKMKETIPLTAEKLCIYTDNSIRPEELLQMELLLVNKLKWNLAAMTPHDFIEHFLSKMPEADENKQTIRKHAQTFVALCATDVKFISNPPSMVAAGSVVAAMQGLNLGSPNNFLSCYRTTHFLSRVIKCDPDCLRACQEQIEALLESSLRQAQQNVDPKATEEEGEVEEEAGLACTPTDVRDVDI
Procedure: A BglII fragment encoding amino acids 176-761 of DMP1 (FIG. 1) is subcloned into the BamHI site of the pGEX-3X plasmid (Pharmacia, Uppsala Sweden), and overnight cultures of transformed bacteria are diluted 10-fold with fresh medium, cultured for 2-4 more hours at 37° C., and induced with 1 mM isopropyl-β-D-thiogalactopyranoside (IPTG) for 1 hour. Induced bacteria are lysed by sonication in phosphate-buffered saline (PBS) containing 1% Triton X-100, and recombinant glutathione-S-transferase (GST)-DMP1 protein is purified by absorption and elution from glutathione-Sepharose beads as described (35). […] After 2 hours at 4° C., the beads are collected by centrifugation, washed 4 times with IP Kinase buffer, and the bound proteins are denatured and analyzed by electrophoresis on 11% polyacrylamide gels containing sodium dodecyl sulfate (SDS) (1).
Because DMP1 interacted with cyclin D2 in yeast, the ability of a glutathione S-transferase (GST)-DMP1 fusion protein to bind D-type cyclins in vitro is examined. […] Bound cyclins recovered on washed glutathione-Sepharose beads are analyzed by electrophoresis on denaturing gels. […] GST-DMP1 is less efficient than GST-RB in binding cyclins D2 and D3 (˜4-fold less binding), and under these conditions, an interaction with D1 is not detected (lanes 3, 7, 11). […]

wild-type MEFs = test: Apoptosis assay in wild-type MEFs deprived of serum; format: cell-based, mouse
Procedure: Apoptosis assays. Wild-type MEFs infected with the indicated retroviruses for 36 hours were starved for serum for 24 hours. Viability was determined by trypan blue dye exclusion, and DNA fragmentation was monitored by a terminal deoxynuclectidyl transferase (FACS-TUNEL) assay and by measurement of subdiploid DNA content of propidium iodide-stained nuclei [Zindy et al., Genes Dev. 12:2424-2433 (1998)].
On the other hand, MEFs overexpressing c-Myc, E2F-1, or E1A are exquisitely sensitive to apoptosis. […] 12:2424-2433 (1998); De Stanchina et al., Genes Dev. 12:2434-2442 (1998)].

p19ARF = test: Induction of endogenous p19ARF protein in retrovirus-infected MEFs; format: cell-based, mouse; details: early passage MEFs, retroviral infection
Procedure: Virus production and infection. Human kidney 293T cells were transfected with a helper ecotropic retrovirus plasmid defective in psi-2 packaging sequences, together with pSRα vectors containing murine DMP1, human c-Myc, human E2F-1, or human Ets1 cDNAs [Zindy, et al., Genes Dev. 12:2424-2433 (1998); Inoue and Sherr, J. Biol. Chem. 273:29188-29194 (1998)]. Viruses were harvested every 6 hours 24-72 hours after transfection, filtered and stored at 4° C. until used for infection [Zindy, et al., Genes Dev. 12:2424-2433 (1998)]. In order to construct a retroviral vector containing DMP1 linked to a mutated tamoxifen-responsive element of the estrogen receptor (DMP1-ER™), a 3′ 0.3 kb EcoNI DNA fragment of murine DMP1 cDNA was amplified by PCR using
RNA and protein expression. Quantitative RT-PCRs employed specific primers for murine ARF exon 1β (30 cycles) and for β-actin (20 cycles) used as a control [Zindy et al., Oncogene 15:203-211 (1997)]. […]
Based on the above observations, it was determined as to whether introduction of DMP1 would induce synthesis of the endogenous ARF protein in normal diploid fibroblast strains. […] Although the blot was normalized for protein input, the levels of p19^ARF induced by DMP1 were calculated to be 2-fold higher than those induced by Myc, because fewer cells were productively infected with the DMP1 virus in this experiment (see FIG. 15A).

B1: Fli1: Ets family member (protein, UniProt P26323 1-452, looked up)
Friend leukemia integration 1 …: MDGTIKEALSVVSDDQSLFDSAYGAAAHLPKADMTASGSPDYGQPHKINPLPPQQEWINQPVRVNVKREYDHMNGSRESPVDCSVSKCNKLVGGGEANPMNYNSYMDEKNGPPPPNMTTNERRVIVPADPTLWTQEHVRQWLEWAIKEYGLMEIDTSFFQNMDGKELCKMNKEDFLRATSAYNTEVLLSHLSYLRESSLLAYNTTSHTDQSSRLNVKEDPSYDSVRRGAWNNNMNSGLNKSPLLGGSQTMGKNTEQRPQPDPYQILGPTSSRLANPGSGQIQLWQFLLELLSDSANASCITWEGTNGEFKMTDPDEVARRWGERKSKPNMNYDKLSRALRYYYDKNIMTKVHGKRYAYKFDFHGIAQALQPHPTETSMYKYPSDISYMPSYHAHQQKVNFVPSHPSSMPVTSSSFFGAASQYWTSPTAGIYPNPSVPRHPNTHVPSHLGSYY
ARF promoter reporter gene expression [1]: minimal activity

interaction with D1 (D-type cyclins): not detected
B2: GST-DMP1: GST fused to residues 176-761 of DMP1, bacterially synthesized (protein)
chain: GIKDATEIIFEMSKDERKDFYRTIAWGLNRPLFAVYRRVLRMYDDRNHVGKYTPEEIEKLKELRIKHGNDWATIGAALGRSASSVKDRCRLMKDTCNTGKWTEEEEKRLAEVVHELTSTEPGDIVTQGVSWAAVAERVGTRSEKQCRSKWLNYLNWKQSGGTEWTKEDEINLILRIAELDVADENDINWDLLAEGWSSVRSPQWLRSKWWTIKRQIANHKDVSFPVLIKGLKQLHENQKNNPVLLENKSGSGVPNSNCNSSVQHVQIRVARLEDNTAISPSPMAALQIPVQITHVSSTDSPAASADSETITLNSGTLQTFEILPSFPLQPTGTPGTYLLQTSSSQGLPLTLTTNPTLTLAAAAPASPEQIIVHALSPEHLLNTSDNVTVQCHTPRVIIQTVATEDITSSLSQEELTVDSDLHSSDFPEPPDALEADTFPDEIPRPKMTIQPSFNNAHVSKFSDQNSTELMNSVMVRTEEEIADTDLKQEEPPSDLASAYVTEDLESPTIVHQVHQTIDDETILIVPSPHGFIQASDVIDTESVLPLTTLTDPIFQHHQEASNIIGSSLGSPVSEDSKDVEDLVNCH
modifications: left off: a dimerising Fc or GST
notes: GST fused to residues 176-761 of DMP1, bacterially synthesized

B3: ARF: ARF tumor suppressor protein (protein)
chain: MGRRFLVTVRIQRAGRPLQERVFLVKFVRSRRPRTASCALAFVNMLLRLERILRRGPHRNPGPGDDDGQRSRSSSSAQLRCRFELRGPHYLLPPGARRSAGRLPGHAGGAARVRGSAGCARCLGSPAARLGPRAGTSRHRAIFAFRWVLFVFRWVVFVYRWERRPDRRA
apoptosis / cell death (wild-type MEFs): did not trigger apoptosis

B4: Myc: known rapid inducer of p19ARF protein expression used as positive control (protein, UniProt P01108 1-454, looked up)
Myc proto-oncogene protein: MDFLWALETPQTATTMPLNVNFTNRNYDLDYDSVQPYFICDEEENFYHQQQQSELQPPAPSEDIWKKFELLPTPPLSPSRRSGLCSPSYVAVATSFSPREDDDGGGGNFSTADQLEMMTELLGGDMVNQSFICDPDDETFIKNIIIQDCMWSGFSAAAKLVSEKLASYQAARKDSTSLSPARGHSVCSTSSLYLQDLTAAASECIDPSVVFPYPLNDSSSPKSCTSSDSTAFSPSSDSLLSSESSPRASPEPLVLHEETPPTTSSDSEEEQEDEEEIDVVSVEKRQTPAKRSESGSSPSRGHSKPPHSPLVLKRCHVSTHQHNYAAPPSTRKDYPAAKRAKLDSGRVLKQISNNRKCSSPRSSDTEENDKRRTHNVLERQRRNELKRSFFALRDQIPELENNEKAPKVVILKKATAYILSIQADEHKLTSEKDLLRKRREQLKHKLEQLRNSGA
ARF protein synthesis (p19ARF): induced ARF protein synthesis | apoptosis / cell death (wild-type MEFs): induced cell death
